Test results: the supplement of paper PMC10724198
± gives the standard deviation of the averaged measurements.

test system: Saccharomyces cerevisiae; experiment: protein stability index of tFT-peptide fusion (C-terminal peptide) (PSI (0-1 scale)); higher = more stable (slower turnover); conditions: genetic background: wild type; temperature: 30 C
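Further: PSI is a weighted mean of sequencing reads over stability bins, variants kept only with over 10 reads, mCherry proximal and sfGFP distal, peptide attached via GGGS linker.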

RTRSKVSVSFND and RTSKRKKSDARK are within error of each other in protein stability index: 0.728 ± 0.043 for the first, 0.784 ± 0.022 for the second.

RTTDPHNRPIRP and RTWNSIESRKIK are within error of each other in protein stability index: 0.6552 ± 0.0047 for the first, 0.706 ± 0.074 for the second.

Going from RVANCGDGSIAV to RVAPITARLAPH, the protein stability index rises from 0.652 ± 0.053 to 0.859 ± 0.12.

RVCKALKNDNLI and RVGGGRDVRGGG are within error of each other in protein stability index: 0.73 ± 0.07 for the first, 0.723 ± 0.042 for the second.

RVGQDGFRVAGC and RVISIIREQEPV are within error of each other in protein stability index: 0.594 ± 0.12 for the first, 0.677 ± 0.034 for the second.

RVKFIEQASRFV and RVPPGSPYPPLL are within error of each other in protein stability index: 0.764 ± 0.12 for the first, 0.7319 ± 0.0028 for the second.

First: RVPVSQHARTRN
Second: RVQFYVGSPALR
The protein stability index of the first is lower: 0.6744 ± 0.0055 for the first, 0.69684 ± 0.00031 for the second.

RVQLTLKGTGVT and RVRGEHKLIGRA are within error of each other in protein stability index: 0.629 ± 0.029 for the first, 0.652 ± 0.034 for the second.

Compared with RVRQQKIFPSLD, RVSACVDGHVFL is lower in protein stability index: 0.7057 ± 0.0062 for the first, 0.643 ± 0.0071 for the second.

Going from RVSTIEAEINLR to RVSVFILGWFRD, the protein stability index falls from 0.708 ± 0.012 to 0.532 ± 0.018.

RVSVSWDDGVMV and RVWQGRDGTVMK are within error of each other in protein stability index: 0.652 ± 0.0088 for the first, 0.659 ± 0.019 for the second.

Going from RVYKTAYNRRTQ to RVYYPSGVKCRL, the protein stability index falls from 0.832 ± 0.021 to 0.671 ± 0.033.

RWAVYDKNRETP and RWGGVVRGCSGG are within error of each other in protein stability index: 0.657 ± 0.05 for the first, 0.687 ± 0.036 for the second.

RWGVRFWVGDSV and RWHLCERFGGRV are within error of each other in protein stability index: 0.687 ± 0.017 for the first, 0.643 ± 0.1 for the second.

RWLEIQKRRGRI and RWPPPPPELPPP are within error of each other in protein stability index: 0.643 ± 0.1 for the first, 0.655 ± 0.039 for the second.

RWREGWGGFSLG and RWVRGDVFQGFC are within error of each other in protein stability index: 0.665 ± 0.025 for the first, 0.693 ± 0.052 for the second.

First: RYAGGHRIGFLI
Second: RYLDPPLPLPRT
The protein stability index of the first is lower: 0.649 ± 0.025 for the first, 0.6921 ± 0.0046 for the second.

RYNRMVERALKY and RYYKKQNWKIGL are within error of each other in protein stability index: 0.677 ± 0.027 for the first, 0.663 ± 0.13 for the second.

SAAPVTLSRLPP and SAAVLRWLASAG are within error of each other in protein stability index: 0.699 ± 0.071 for the first, 0.683 ± 0.059 for the second.

SAEKKRAKCERR and SAGARIRPADAL are the same in protein stability index: 0.68 ± 0.01 for the first, 0.6801 ± 0.0022 for the second.

SAGPVYAGGVAS and SAIGVGGGGTGG are within error of each other in protein stability index: 0.6895 ± 0.0068 for the first, 0.676 ± 0.0082 for the second.

SAKARTNHAFQF and SALLPSPGPPAF are within error of each other in protein stability index: 0.678 ± 0.0097 for the first, 0.656 ± 0.089 for the second.

SAPGIGFYTKSL and SARWTSRIQDRS are within error of each other in protein stability index: 0.653 ± 0.064 for the first, 0.652 ± 0.02 for the second.

SASSPLPPAATG and SAVARVGDVIAV are within error of each other in protein stability index: 0.652 ± 0.051 for the first, 0.613 ± 0.059 for the second.

First: SAVWWDRLDIRK
Second: SAWGLVLVGSWG
The protein stability index of the first is higher: 0.687 ± 0.012 for the first, 0.602 ± 0.011 for the second.

SAYASCFGSESL and SCCPVESSHSLP are within error of each other in protein stability index: 0.675 ± 0.05 for the first, 0.612 ± 0.055 for the second.

SCDLRALALLGG and SCLGSGVSWGVW are within error of each other in protein stability index: 0.707 ± 0.07 for the first, 0.731 ± 0.0053 for the second.

Compared with SCLHRDLSDTCQ, SCLVWTWVSSVL is lower in protein stability index: 0.66536 ± 0.00012 for the first, 0.573 ± 0.067 for the second.

SCPLSARLYASL and SCPPSARLSNTC are within error of each other in protein stability index: 0.675 ± 0.079 for the first, 0.7506 ± 0.00063 for the second.

SCPSFVWLSFPQ and SCRVVSGLAIWW are within error of each other in protein stability index: 0.7142 ± 0.0056 for the first, 0.734 ± 0.15 for the second.

First: SCSHYLPAPLPF
Second: SCVDRAVGCRVS
The protein stability index of the first is lower: 0.577 ± 0.0074 for the first, 0.6961 ± 0.0042 for the second.

Going from SCYTEQRVMICL to SDHVYHFRLTRV, the protein stability index rises from 0.592 ± 0.0023 to 0.709 ± 0.076.

SDKGKSSVSGSN and SDLGLHGRVPST are within error of each other in protein stability index: 0.678 ± 0.012 for the first, 0.6671 ± 0.0014 for the second.

SDPPPPPDPPSP and SDSREAVLTEEP are within error of each other in protein stability index: 0.673 ± 0.032 for the first, 0.625 ± 0.13 for the second.

Going from SEGRMHGLFLLN to SELKNKKRKHAK, the protein stability index rises from 0.544 ± 0.022 to 0.706 ± 0.034.

SESKCRPKVSQP and SEVRLMSVTSHS are within error of each other in protein stability index: 0.689 ± 0.065 for the first, 0.7417 ± 0.0038 for the second.

SFAPPPPPPLPS and SFARPNTRALPT are within error of each other in protein stability index: 0.686 ± 0.025 for the first, 0.656 ± 0.13 for the second.

SFARPSFVRPFA and SFEFSSRVFSLD are within error of each other in protein stability index: 0.694 ± 0.017 for the first, 0.714 ± 0.055 for the second.

SFFSSSRVCLGF and SFHRICTYVLRP are within error of each other in protein stability index: 0.685 ± 0.11 for the first, 0.634 ± 0.089 for the second.

Compared with SFILPFISPLLF, SFLLGLCHFYGS is higher in protein stability index: 0.565 ± 0.022 for the first, 0.718 ± 0.04 for the second.

SFLRHSCFPSVP and SFPHLARRLLSP are within error of each other in protein stability index: 0.736 ± 0.023 for the first, 0.673 ± 0.06 for the second.

First: SFPPLRPSPPLL
Second: SFPPPPFPPLFL
The protein stability index of the first is lower: 0.667 ± 0.019 for the first, 0.722 ± 0.023 for the second.

First: SFSFPFGCSSRF
Second: SFSPLHVGPSPL
The protein stability index of the first is higher: 0.7195 ± 0.0046 for the first, 0.6843 ± 0.0048 for the second.

Going from SFSSHPPFAPSF to SFVFSVFGAGVD, the protein stability index rises from 0.745 ± 0.018 to 0.778 ± 0.014.

Compared with SFVRTLSCISIF, SFWWCSARSFQG is higher in protein stability index: 0.513 ± 0.053 for the first, 0.715 ± 0.03 for the second.

First: SFWWGGWGVGPD
Second: SFYFAPLLSPFA
The protein stability index of the first is higher: 0.73647 ± 0.0004 for the first, 0.597 ± 0.036 for the second.

First: SGAGGGGWGGGV
Second: SGARDLVILTPW
The protein stability index of the first is higher: 0.7535 ± 0.0062 for the first, 0.713 ± 0.013 for the second.

SGAWSGGGESGH and SGCLGGGRGGWG are within error of each other in protein stability index: 0.596 ± 0.058 for the first, 0.657 ± 0.013 for the second.

First: SGCVGGSDVALS
Second: SGDLLLGCTLVV
The protein stability index of the first is higher: 0.721 ± 0.018 for the first, 0.6313 ± 0.0018 for the second.

SGDVENQMGEES and SGEVFEDLRAPE are within error of each other in protein stability index: 0.717 ± 0.062 for the first, 0.743 ± 0.038 for the second.

SGEVGVGHWVGG and SGFKRWSDVGDY are the same in protein stability index: 0.6812 ± 0.0053 for the first, 0.6815 ± 0.0057 for the second.

SGGADYMDPRLT and SGGCVGLAVAGG are within error of each other in protein stability index: 0.714 ± 0.027 for the first, 0.702 ± 0.056 for the second.

SGGGGGGDCVGA and SGGGRAECGEVR are within error of each other in protein stability index: 0.687 ± 0.015 for the first, 0.702 ± 0.021 for the second.

SGGQGCGGGWNV and SGGVRDDFLWVL are within error of each other in protein stability index: 0.708 ± 0.011 for the first, 0.728 ± 0.016 for the second.

First: SGHFGTATTLCF
Second: SGKKKVSAQRII
The protein stability index of the first is higher: 0.749 ± 0.011 for the first, 0.6709 ± 0.0023 for the second.

SGLLSPHTHMFP and SGLPRLLLVILP are within error of each other in protein stability index: 0.598 ± 0.048 for the first, 0.6104 ± 0.0031 for the second.

SGNSPTRDRLRE and SGPTPCRSPRLL are within error of each other in protein stability index: 0.684 ± 0.16 for the first, 0.636 ± 0.051 for the second.

SGRGANGVPGGE and SGRIYLVGLRYI are within error of each other in protein stability index: 0.602 ± 0.16 for the first, 0.538 ± 0.0068 for the second.

SGRTLLPPSLGD and SGSFPSLALLSS are within error of each other in protein stability index: 0.606 ± 0.025 for the first, 0.642 ± 0.042 for the second.

SGSSRVGWLEGW and SGSTRTEDDGAR are within error of each other in protein stability index: 0.676 ± 0.022 for the first, 0.652 ± 0.038 for the second.

Going from SGTRARGKGVVC to SGVHFFLRTGAL, the protein stability index rises from 0.6421 ± 0.0024 to 0.692 ± 0.016.

SHAAKRYNHPHS and SHAGTEAGPGWM are within error of each other in protein stability index: 0.7333 ± 0.00094 for the first, 0.782 ± 0.2 for the second.

Compared with SHGLLTLRLALA, SHPPPALVPLFK is higher in protein stability index: 0.586 ± 0.017 for the first, 0.678 ± 0.016 for the second.

SHPPPTVPPAIP and SHPSALPPISAG are within error of each other in protein stability index: 0.677 ± 0.013 for the first, 0.734 ± 0.071 for the second.

Going from SHRDNEKPILSA to SHSKSQRRFQTR, the protein stability index falls from 0.75 ± 0.015 to 0.637 ± 0.093.

SHVARFMDEFCM and SICFWCKHWSDV are within error of each other in protein stability index: 0.79 ± 0.038 for the first, 0.72 ± 0.064 for the second.

Compared with SIFRVKQGKTNK, SIGAGSSGVGQE is higher in protein stability index: 0.5732 ± 0.0025 for the first, 0.685 ± 0.037 for the second.

Going from SILEIFSQGTEM to SILLPLPRLLPC, the protein stability index falls from 0.693 ± 0.01 to 0.606 ± 0.018.

First: SIPLYAKNSSLP
Second: SIQHGRFLTLSV
The protein stability index of the first is higher: 0.722 ± 0.042 for the first, 0.585 ± 0.0093 for the second.

SIRPPPPSSFPA and SISFSLPRPLPP are within error of each other in protein stability index: 0.806 ± 0.069 for the first, 0.688 ± 0.068 for the second.

Compared with SISLLIWLFSSC, SISYCSAFGGID is higher in protein stability index: 0.637 ± 0.05 for the first, 0.69655 ± 7.1e-05 for the second.

SISYSNLPSLFF and SIVESRGRGFRL are within error of each other in protein stability index: 0.75 ± 0.051 for the first, 0.697 ± 0.18 for the second.

SIVFFLPPVSSS and SIWVLLVPRQSI are within error of each other in protein stability index: 0.724 ± 0.089 for the first, 0.639 ± 0.11 for the second.

SKDVLPGDDNVI and SKFNSLNNHRKG are within error of each other in protein stability index: 0.656 ± 0.073 for the first, 0.655 ± 0.033 for the second.

SKKDMWMFVGEG and SKLAVWVGERGF are within error of each other in protein stability index: 0.722 ± 0.032 for the first, 0.759 ± 0.02 for the second.

Going from SKLTKQQKRTKS to SKLVSPGVPRTP, the protein stability index rises from 0.665 ± 0.055 to 0.78 ± 0.043.

First: SKNLKQTQKKKT
Second: SKPEEAGADLSD
The protein stability index of the first is higher: 0.808 ± 0.069 for the first, 0.6 ± 0.086 for the second.

SKPPLPTRLPRP and SKRQQQKITAQE are within error of each other in protein stability index: 0.7056 ± 0.0032 for the first, 0.67 ± 0.086 for the second.

SKTQRKQIIKKQ and SLASSLHTYDLT are within error of each other in protein stability index: 0.638 ± 0.056 for the first, 0.661 ± 0.032 for the second.

SLDQRPSLSFKR and SLFFFLFSPSCL are within error of each other in protein stability index: 0.663 ± 0.015 for the first, 0.691 ± 0.075 for the second.
